{"source": "patent US5888811A", "about": "“Corticotropin-releasing hormone receptor” (DuPont Pharmaceuticals Company, priority 1997, dated 1999)", "key": {"CRHR2 γ": {"target": "T1, CRHR2 γ (Homo sapiens, UniProt Q13324, DEL106-106)", "T1 sequence (Q13324 with tags, fused parts or gaps DEL106-106)": "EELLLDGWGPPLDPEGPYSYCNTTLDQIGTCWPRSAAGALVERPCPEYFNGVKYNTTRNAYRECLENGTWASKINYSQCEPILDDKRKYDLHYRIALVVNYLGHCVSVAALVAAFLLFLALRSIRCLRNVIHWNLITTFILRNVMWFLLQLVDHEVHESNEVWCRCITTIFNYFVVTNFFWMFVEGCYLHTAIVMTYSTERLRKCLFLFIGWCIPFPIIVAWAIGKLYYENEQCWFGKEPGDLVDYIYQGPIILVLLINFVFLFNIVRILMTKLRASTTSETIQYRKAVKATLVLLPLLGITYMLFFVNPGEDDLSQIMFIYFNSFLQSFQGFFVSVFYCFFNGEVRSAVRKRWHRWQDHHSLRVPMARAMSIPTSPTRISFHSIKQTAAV", "test": "Whole cell adenylate cyclase assay (cAMP accumulation) in HEK293EBNA cells expressing CRHR2γ", "format": "cell-based", "details": "rank order only; summary statement", "description": "HEK293EBNA cells expressing the CRHR2 γ were incubated in DMEM with low serum (0.1% FBS) at 37° C., 5% CO2 for at least 2 hrs before the addition of isobytylmethoxyxanthine (IBMX) to the media at a final concentration of 0.1 mM. The cells were incubated with the IBMX for 30 minutes; test peptides or compounds were then added to the media and incubated therein for 25-30 min. The media was then aspirated from the cells and replaced with ice cold sodium acetate buffer containing 1 mM IBMX. The cells were then disrupted by a freeze-thaw, followed by sonication. Supernatants were assayed for cAMP levels with PerSeptive Diagnostics EIA Kit."}, "CRHR2 γ receptor": {"target": "T2, CRHR2 γ receptor (Homo sapiens, UniProt Q13324, DEL106-106)", "T2 construct": "the full length CRHR2 γ cDNA (original cDNA library clone) was subcloned; expressed in transfected cells; membranes", "T2 sequence (Q13324 with tags, fused parts or gaps isoform Q13324-3 DEL92-92)": "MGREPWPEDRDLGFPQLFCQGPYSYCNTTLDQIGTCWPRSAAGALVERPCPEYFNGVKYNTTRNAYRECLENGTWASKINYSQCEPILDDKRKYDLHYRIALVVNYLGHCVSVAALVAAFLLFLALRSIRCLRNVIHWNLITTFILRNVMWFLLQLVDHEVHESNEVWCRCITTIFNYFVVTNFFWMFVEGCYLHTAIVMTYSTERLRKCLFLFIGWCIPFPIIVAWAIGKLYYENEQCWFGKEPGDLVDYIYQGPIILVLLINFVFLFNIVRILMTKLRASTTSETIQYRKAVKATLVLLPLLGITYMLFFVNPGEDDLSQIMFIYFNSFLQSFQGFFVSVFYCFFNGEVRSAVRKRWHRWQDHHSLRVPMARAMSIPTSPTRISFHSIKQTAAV", "test": "Displacement of 125I-tyr-0-sauvagine from membranes of HEK293EBNA cells expressing CRHR2γ", "format": "binding", "details": "60-70 pM 125I-tyr-0-sauvagine; 23° C., 4 hours; read-out: approximate IC50 for displacement of 125I-tyr-0-sauvagine", "description": "Buffer consisted of 50 mM HEPES, 10 mM MgCI2, 2 mM EGTA, and 1 μg/ml each of aprotinin, leupeptin, and pepstatin at a final pH of 7.0. Bacitracin at 0.15 mM and ovalbumin at 0.1% were added to the buffer on the day of use. Assays were performed at 23° C. for 4 hours in a final volume of 200 μl in 96-well microtiter plates. Reactions were initiated by the addition of 10-20 μg of membrane homogenates and terminated by rapid filtration through presoaked (0.3% polyethyleneimine) glass fiber filters using an Inotech 96-well harvester. The filters were washed quickly 3×with ice-cold solution (PBS+0.01% TritonX-100, pH7.2), dried briefly, then placed into polystyrene tubes and counted on an Isomedic 10/880 γ counter (counting efficiency ~80%). Data was analyzed by nonlinear regression analysis using the computer program MacLigand. Determinations were made from at least 3 separate experiments."}}, "note": "Where no end group is shown, it is not given here."}
{"substance": "r/h CRH: rat/human corticotropin-releasing hormone, agonist peptide", "values": [{"measurement": "potency of stimulation of adenylate cyclase activity (rank order), measured by intracellular cAMP accumulation", "setting": "CRHR2 γ", "value": "sauvagine>urotensin>rat/human CRH"}]}
{"substance": "urocortin: mammalian neuropeptide related to fish urotensin I and to corticotropin-releasing factor (DNPSLSIDLTFHLLRTLLELARTQSQRERAEQNRIIFDSV; ends and bridges not checked; UniProt P55089 83-122, looked up)", "values": [{"measurement": "IC50", "setting": "CRHR2 γ receptor", "value": "~2", "unit": "nM"}]}
